Data published in patent EP4714976A1.

T1: FGFR4 (acro) (UniProt P22455)
T1 sequence (looked up): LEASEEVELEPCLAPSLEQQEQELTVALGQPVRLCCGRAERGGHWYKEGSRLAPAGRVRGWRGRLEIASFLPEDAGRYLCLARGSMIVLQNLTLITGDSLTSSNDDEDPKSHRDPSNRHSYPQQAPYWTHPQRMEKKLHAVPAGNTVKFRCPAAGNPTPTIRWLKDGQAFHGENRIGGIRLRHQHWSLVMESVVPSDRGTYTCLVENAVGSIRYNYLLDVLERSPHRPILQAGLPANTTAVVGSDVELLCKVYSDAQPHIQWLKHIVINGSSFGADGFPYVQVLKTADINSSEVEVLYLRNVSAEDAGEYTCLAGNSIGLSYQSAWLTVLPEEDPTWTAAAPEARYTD

B1: 3E3 scFv-Fc (Fc fusion)
chain: QVQLQQPGAVLVKPGASVRMSCKASGYTFPYYNVHWVKRTPGQGLEWIGLIYPDNGDTSYNQKFTGKATLTADTSSSTAYMQLSSLTSEDSAVYYCARGGLDYWGQGTTLTVSAGGGGSGGGGSGGGGSDVQITQSPASLSASVGETVTITCGASENIYGALNWYQRKQGKSPQLLIYGATNLADGMSSRFSGSGSGRQYSLKISSLHPDDVATYYCQNVLSTPYTFGGGTKLEIKESKYGPPCPPCPAPEAAGGPSVFLFPPKPKDTLMISRTPEVTCVVVDVSQEDPEVQFNWYVDGVEVHNAKTKPREEQFNSTYRVVSVLTVLHQDWLNGKEYKCKVSNKGLPSSIEKTISKAKGQPREPQVYTLPPSQEEMTKNQVSLTCLVKGFYPSDIAVEWESNGQPENNYKTTPPVLDSDGSFFLYSKLTVDKSRWQEGNVFSCSVMHEALHNHYTQKSLSLSLG
B2: 3D7 scFv-Fc (Fc fusion)
chain: QVQLQQSGAELVKPGASVKMSCKASGYTFSFYNMHWVKRTPGRGLEWIGLIYPDNGDTSYNQKFKGKATLTADTSSSTAYMQLSSLTSEDSAVYYCARGGLDYWGQGTSLTVSSGGGGSGGGGSGGGGSEIVLTQSPASLAVSLGQRATISCKASQSVDYDGDSYMNWYQQKPGQPPKLLIYGISNRFSGVPDRFSGSGSGTDFTLKISTIKPEDLGMYYCLQGTHQPYTFGGGTKLEIKESKYGPPCPPCPAPEAAGGPSVFLFPPKPKDTLMISRTPEVTCVVVDVSQEDPEVQFNWYVDGVEVHNAKTKPREEQFNSTYRVVSVLTVLHQDWLNGKEYKCKVSNKGLPSSIEKTISKAKGQPREPQVYTLPPSQEEMTKNQVSLTCLVKGFYPSDIAVEWESNGQPENNYKTTPPVLDSDGSFFLYSKLTVDKSRWQEGNVFSCSVMHEALHNHYTQKSLSLSLG
B3: 1G6 scFv-Fc (Fc fusion)
chain: EIQLQQSGAELVKPGASVKMSCKASGYTFRYYNMHWVKRTPGQGLEWIGLIYPDNGDTSYNQKFKGKATLTADTSSSTAYMQLSSLTSEDSAVYYCARGGLDYWGQGTSLTVSSGGGGSGGGGSGGGGSNIVMTQSHKFMSTSVGDRVSITCKASQDVNTDVAWYQQKPGQSPKLLIYSASYRYTGVPTRFTGSGSGTDFTFTISGVQAEDLADYYCQQHYNTPYTFGGGTKLELKESKYGPPCPPCPAPEAAGGPSVFLFPPKPKDTLMISRTPEVTCVVVDVSQEDPEVQFNWYVDGVEVHNAKTKPREEQFNSTYRVVSVLTVLHQDWLNGKEYKCKVSNKGLPSSIEKTISKAKGQPREPQVYTLPPSQEEMTKNQVSLTCLVKGFYPSDIAVEWESNGQPENNYKTTPPVLDSDGSFFLYSKLTVDKSRWQEGNVFSCSVMHEALHNHYTQKSLSLSLG
B4: 1A3 scFv-Fc (Fc fusion)
chain: QVQLQQPGAELVKPGASVKMSCKASGYTFASYNLHWVKQTPGQGLEWIGLIYPENGDTSYNQKFKGKATLTADKSSSTAYIQLSSLTSEDSAVYFCARGGFDYWGQGTTLTVSQGGGGSGGGGSGGGGSDIQMTQSPASLSASVGETVTITCGASENIYGALNWYQRKQGKSPQLLIYGATNLADGMSSRFSGSGSGRQYSLKISSLHPDDVATYYCQNVLSTPYTFGGGTKLEIKESKYGPPCPPCPAPEAAGGPSVFLFPPKPKDTLMISRTPEVTCVVVDVSQEDPEVQFNWYVDGVEVHNAKTKPREEQFNSTYRVVSVLTVLHQDWLNGKEYKCKVSNKGLPSSIEKTISKAKGQPREPQVYTLPPSQEEMTKNQVSLTCLVKGFYPSDIAVEWESNGQPENNYKTTPPVLDSDGSFFLYSKLTVDKSRWQEGNVFSCSVMHEALHNHYTQKSLSLSLG

What follows are binders tested against recombinant mouse FGFR2b (mouse) (UniProt P21803) (assay: ELISA, antibody 1ug/mL).
Sequence of recombinant mouse FGFR2b (mouse) (P21803 22-377): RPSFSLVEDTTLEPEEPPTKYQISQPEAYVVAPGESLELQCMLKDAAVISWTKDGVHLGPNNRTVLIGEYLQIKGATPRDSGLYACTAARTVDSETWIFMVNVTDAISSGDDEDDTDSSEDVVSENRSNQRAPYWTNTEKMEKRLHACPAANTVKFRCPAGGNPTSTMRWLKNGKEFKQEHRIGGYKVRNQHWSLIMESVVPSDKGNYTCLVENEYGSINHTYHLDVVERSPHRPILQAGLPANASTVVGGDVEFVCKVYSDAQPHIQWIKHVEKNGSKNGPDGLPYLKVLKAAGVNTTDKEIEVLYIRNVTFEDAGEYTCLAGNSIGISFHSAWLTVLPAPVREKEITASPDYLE

| OD (450 nm) value | Binder |
| --- | --- |
| 3.06 | B1 |
| 2.48 | B2 |
| 2.76 | B3 |
| 1.81 | B4 |

These binders were tested against FGFR1 (acro) (UniProt P11362) (assay: ELISA, antibody 10 µg/mL).
Sequence of FGFR1 (acro) (P11362 22-376): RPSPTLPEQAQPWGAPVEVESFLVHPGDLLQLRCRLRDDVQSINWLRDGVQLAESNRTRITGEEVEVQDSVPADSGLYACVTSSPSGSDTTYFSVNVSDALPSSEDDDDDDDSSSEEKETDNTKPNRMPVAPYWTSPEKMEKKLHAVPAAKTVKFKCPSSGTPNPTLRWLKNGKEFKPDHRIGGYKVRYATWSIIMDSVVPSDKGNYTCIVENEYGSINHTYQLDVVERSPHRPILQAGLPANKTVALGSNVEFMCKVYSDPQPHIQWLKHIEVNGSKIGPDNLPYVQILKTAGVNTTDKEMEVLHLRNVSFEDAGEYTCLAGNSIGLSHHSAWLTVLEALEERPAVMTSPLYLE

| OD (450 nm) value | Binder |
| --- | --- |
| 0.19 | B1 |
| 0.192 | B2 |
| 0.217 | B3 |
| 0.143 | B4 |

These binders were tested against FGFR2c (acro) (UniProt P21802) (assay: ELISA, antibody 10 µg/mL).
Sequence of FGFR2c (acro) (P21802 22-377): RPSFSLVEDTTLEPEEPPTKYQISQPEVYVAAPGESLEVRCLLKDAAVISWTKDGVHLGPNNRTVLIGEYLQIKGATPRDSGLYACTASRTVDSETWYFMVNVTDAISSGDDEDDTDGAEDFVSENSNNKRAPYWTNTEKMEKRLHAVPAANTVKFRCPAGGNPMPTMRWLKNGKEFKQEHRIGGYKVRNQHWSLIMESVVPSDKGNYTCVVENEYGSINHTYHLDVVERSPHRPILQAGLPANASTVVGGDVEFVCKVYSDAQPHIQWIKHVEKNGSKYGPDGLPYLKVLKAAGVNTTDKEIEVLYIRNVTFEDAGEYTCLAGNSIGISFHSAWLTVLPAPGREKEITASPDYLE

| OD (450 nm) value | Binder |
| --- | --- |
| 0.199 | B1 |
| 0.176 | B3 |
| 0.134 | B4 |

Each binder was assayed against T1, FGFR4 (acro) (assay: ELISA, antibody 10 µg/mL).

| OD (450 nm) value | Binder |
| --- | --- |
| 0.265 | B1 |
| 0.256 | B2 |
| 0.232 | B3 |

What follows are binders tested against recombinant mouse FGFR2b (mouse) (UniProt P21803) (assay: BLI, antibody on AHC2 sensor).

| Kd | koff | kon | Binder |
| --- | --- | --- | --- |
| 52.7 nM | 0.00214 s⁻¹ | 40500 M⁻¹ s⁻¹ | B1 |
| 81.7 nM | 0.00238 s⁻¹ | 29100 M⁻¹ s⁻¹ | B2 |
| 42.2 nM | 0.00128 s⁻¹ | 30400 M⁻¹ s⁻¹ | B3 |
| 99.8 nM | 0.0054 s⁻¹ | 54200 M⁻¹ s⁻¹ | B4 |
